Experimental data taken from PMC11797550.

Columns and labels:
[1] = target: IGF-2-like, endogenous in the larval fat body; experiment: Co-IP (anti-IDE antibody) with western blot band quantification; conditions: fat body of larvae; 10% gel in SDS-PAGE; three replicates; parent: est. 0.18; read off a plot
[2] = target: USP1 (ultraspiracle), endogenous in the larval fat body; experiment: as above; conditions: fat body of larvae; 10% gel in SDS-PAGE; three replicates; parent: est. 0.49; read off a plot

- response (IGF-2-like/ACTB) [1]: 0.46
- response [2]: 0.16 USP1/ACTB
Substance: IDE, wild type, endogenous in the larval fat body K179R
